Here are results for 43 molecules from patent publication US20210388087A1 (Chugai, published 2021).

The labels stand for the following.
B1: GLS3000 S25L (antibody, name in Kabat numbering, V domains shown)
VH: QVQLVESGGGVVQPGRSLRLSCAASGFTFSNAWMHWVRQAPGKGLEWVAQIKAKSNNYATYYAESVKGRFTISRDDSKNSLYLQMNSLKTEDTAVYYCRYVHYGAYYGVDAWGQGTTVTVSS
VL: DIVMTQSPLSLPVTPGEPASISCRLSQSLVHSNRNTYLHWYQQKPGQAPRLLIYKVSNRFSGVPDRFSGSGSGTDFTLKISRVEAEDVGVYYCGQGTQVPYTFGQGTKLEIK
notes: one-arm IgG as m2
B2: GLS3000 S27eP (antibody, name in Kabat numbering, V domains shown)
VH: B1 VH
VL: B1 VL with L25S, S32P
notes: one-arm IgG as m2
B3: GLS3000 S27aP (antibody, name in Kabat numbering, V domains shown)
VH: B1 VH
VL: B1 VL with L25S, S28P
notes: one-arm IgG as m2
B4: GLS3000 S52Y (antibody, name in Kabat numbering, V domains shown)
VH: B1 VH
VL: B1 VL with L25S, S57Y
notes: one-arm IgG as m2
B5: GLS3000 S27eY (antibody, name in Kabat numbering, V domains shown)
VH: B1 VH
VL: B1 VL with L25S, S32Y
notes: one-arm IgG as m2
B6: GLS3000 S52P (antibody, name in Kabat numbering, V domains shown)
VH: B1 VH
VL: B1 VL with L25S, S57P
notes: one-arm IgG as m2
B7: GLS3000 S25V (antibody, name in Kabat numbering, V domains shown)
VH: B1 VH
VL: B1 VL with L25V
notes: one-arm IgG as m2
B8: GLS3000 S27eL (antibody, name in Kabat numbering, V domains shown)
VH: B1 VH
VL: B1 VL with L25S, S32L
notes: one-arm IgG as m2
B9: GLS3000 S26E (antibody, name in Kabat numbering, V domains shown)
VH: B1 VH
VL: B1 VL with L25S, S26E
notes: one-arm IgG as m2
B10: GLS3000 S25P (antibody, name in Kabat numbering, V domains shown)
VH: B1 VH
VL: B1 VL with L25P
notes: one-arm IgG as m2
B11: GLS3000 S27eV (antibody, name in Kabat numbering, V domains shown)
VH: B1 VH
VL: B1 VL with L25S, S32V
notes: one-arm IgG as m2
B12: GLS3000 S27eM (antibody, name in Kabat numbering, V domains shown)
VH: B1 VH
VL: B1 VL with L25S, S32M
notes: one-arm IgG as m2
B13: GLS3000 S27eW (antibody, name in Kabat numbering, V domains shown)
VH: B1 VH
VL: B1 VL with L25S, S32W
notes: one-arm IgG as m2
B14: GLS3000 S27eG (antibody, name in Kabat numbering, V domains shown)
VH: B1 VH
VL: B1 VL with L25S, S32G
notes: one-arm IgG as m2
B15: GLS3000 S52D (antibody, name in Kabat numbering, V domains shown)
VH: B1 VH
VL: B1 VL with L25S, S57D
notes: one-arm IgG as m2
B16: GLS3000 S27eF (antibody, name in Kabat numbering, V domains shown)
VH: B1 VH
VL: B1 VL with L25S, S32F
notes: one-arm IgG as m2
B17: GLS3000 S27eN (antibody, name in Kabat numbering, V domains shown)
VH: B1 VH
VL: B1 VL with L25S, S32N
notes: one-arm IgG as m2
B18: GLS3000 S27aE (antibody, name in Kabat numbering, V domains shown)
VH: B1 VH
VL: B1 VL with L25S, S28E
notes: one-arm IgG as m2
B19: GLS3000 S27eQ (antibody, name in Kabat numbering, V domains shown)
VH: B1 VH
VL: B1 VL with L25S, S32Q
notes: one-arm IgG as m2
B20: GLS3000 S56D (antibody, name in Kabat numbering, V domains shown)
VH: B1 VH
VL: B1 VL with L25S, S61D
notes: one-arm IgG as m2
B21: GLS3000 S27aG (antibody, name in Kabat numbering, V domains shown)
VH: B1 VH
VL: B1 VL with L25S, S28G
notes: one-arm IgG as m2
B22: GLS3000 S27aD (antibody, name in Kabat numbering, V domains shown)
VH: B1 VH
VL: B1 VL with L25S, S28D
notes: one-arm IgG as m2
B23: GLS3000 S25T (antibody, name in Kabat numbering, V domains shown)
VH: B1 VH
VL: B1 VL with L25T
notes: one-arm IgG as m2
B24: GLS3000 S27eK (antibody, name in Kabat numbering, V domains shown)
VH: B1 VH
VL: B1 VL with L25S, S32K
notes: one-arm IgG as m2
B25: GLS3000 S52A (antibody, name in Kabat numbering, V domains shown)
VH: B1 VH
VL: B1 VL with L25S, S57A
notes: one-arm IgG as m2
B26: GLS3000 S27eI (antibody, name in Kabat numbering, V domains shown)
VH: B1 VH
VL: B1 VL with L25S, S32I
notes: one-arm IgG as m2
B27: GLS3000 S27aN (antibody, name in Kabat numbering, V domains shown)
VH: B1 VH
VL: B1 VL with L25S, S28N
notes: one-arm IgG as m2
B28: GLS3000 S56G (antibody, name in Kabat numbering, V domains shown)
VH: B1 VH
VL: B1 VL with L25S, S61G
notes: one-arm IgG as m2
B29: GLS3000 S27eE (antibody, name in Kabat numbering, V domains shown)
VH: B1 VH
VL: B1 VL with L25S, S32E
notes: one-arm IgG as m2
B30: GLS3000 S26P (antibody, name in Kabat numbering, V domains shown)
VH: B1 VH
VL: B1 VL with L25S, S26P
notes: one-arm IgG as m2
B31: GLS3000 S27eR (antibody, name in Kabat numbering, V domains shown)
VH: B1 VH
VL: B1 VL with L25S, S32R
notes: one-arm IgG as m2
B32: GLS3000 S26D (antibody, name in Kabat numbering, V domains shown)
VH: B1 VH
VL: B1 VL with L25S, S26D
notes: one-arm IgG as m2
B33: GLS3000 S56A (antibody, name in Kabat numbering, V domains shown)
VH: B1 VH
VL: B1 VL with L25S, S61A
notes: one-arm IgG as m2
B34: GLS3000 S27eH (antibody, name in Kabat numbering, V domains shown)
VH: B1 VH
VL: B1 VL with L25S, S32H
notes: one-arm IgG as m2
B35: GLS3000 S27eA (antibody, name in Kabat numbering, V domains shown)
VH: B1 VH
VL: B1 VL with L25S, S32A
notes: one-arm IgG as m2
B36: GLS3000 S56F (antibody, name in Kabat numbering, V domains shown)
VH: B1 VH
VL: B1 VL with L25S, S61F
notes: one-arm IgG as m2
B37: GLS3000 S56E (antibody, name in Kabat numbering, V domains shown)
VH: B1 VH
VL: B1 VL with L25S, S61E
notes: one-arm IgG as m2
B38: GLS3000 S27eT (antibody, name in Kabat numbering, V domains shown)
VH: B1 VH
VL: B1 VL with L25S, S32T
notes: one-arm IgG as m2
B39: GLS3000 S27aI (antibody, name in Kabat numbering, V domains shown)
VH: B1 VH
VL: B1 VL with L25S, S28I
notes: one-arm IgG as m2
B40: GLS3000 S25M (antibody, name in Kabat numbering, V domains shown)
VH: B1 VH
VL: B1 VL with L25M
notes: one-arm IgG as m2
B41: GLS3000 S27eD (antibody, name in Kabat numbering, V domains shown)
VH: B1 VH
VL: B1 VL with L25S, S32D
notes: one-arm IgG as m2
B42: GLS3000 S27aY (antibody, name in Kabat numbering, V domains shown)
VH: B1 VH
VL: B1 VL with L25S, S28Y
notes: one-arm IgG as m2
B43: GLS3000 S52Q (antibody, name in Kabat numbering, V domains shown)
VH: B1 VH
VL: B1 VL with L25S, S57Q
notes: one-arm IgG as m2

Numbering of substitutions follows the chain as printed.

T1 sequence (P07766 23-126): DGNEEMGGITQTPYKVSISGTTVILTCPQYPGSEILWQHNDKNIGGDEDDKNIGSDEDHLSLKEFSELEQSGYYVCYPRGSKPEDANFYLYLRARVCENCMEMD

The test concerns the target T1, CD3 epsilon homodimer protein (UniProt P07766 23-126).
T1 construct: also called CD3 (CD3 epsilon)
Nature of the test: SPR Biacore T200, CD3e homodimer on chip, vs unaltered GLS3000 antibody. A general note: In SPR one partner is held on a chip, and binding of the other changes the refractive index at the surface.
Turning to B1, the “ratio of amounts bound (Z=Y/X)” value was 0.24.
On to B2, for which the “ratio of amounts bound (Z=Y/X)” value turned out to be 1.26.
For the molecule B3, the “ratio of amounts bound (Z=Y/X)” value is 0.99.
In the case of B4, the “ratio of amounts bound (Z=Y/X)” value worked out at 1.12.
Regarding B5, the “ratio of amounts bound (Z=Y/X)” value stood at 1.2.
For the molecule B6, the “ratio of amounts bound (Z=Y/X)” value was found to be 0.33.
The result for B7 reads 0.73; that for B8, 1.17; that for B9, 0.74.
As for B10, the “ratio of amounts bound (Z=Y/X)” value was found to be 1.01.
Consider B11, for which the “ratio of amounts bound (Z=Y/X)” value came out at 1.08.
As to B12, the “ratio of amounts bound (Z=Y/X)” value is 1.23.
For the molecule B13, the “ratio of amounts bound (Z=Y/X)” value was found to be 1.55.
Consider B14, for which the “ratio of amounts bound (Z=Y/X)” value is 1.04.
The result for B15 reads 0.63; that for B16, 1.32; that for B17, 1.16.
With B18, the “ratio of amounts bound (Z=Y/X)” value was 0.81.
Take B19: the “ratio of amounts bound (Z=Y/X)” value stood at 1.1.
Then B20, with 0.77; and B21, with 1.03.
With B22, the “ratio of amounts bound (Z=Y/X)” value stood at 0.79.
The result for B23 reads 0.83.
As for B24, the “ratio of amounts bound (Z=Y/X)” value is 1.59.
Take B25: the “ratio of amounts bound (Z=Y/X)” value is 0.93.
The result for B26 reads 1.07; that for B27, 1.1.
For B28, the “ratio of amounts bound (Z=Y/X)” value worked out at 0.92.
Consider B29, for which the “ratio of amounts bound (Z=Y/X)” value was found to be 0.76.
With B30, the “ratio of amounts bound (Z=Y/X)” value turned out to be 0.78.
Regarding B31, the “ratio of amounts bound (Z=Y/X)” value was found to be 1.58.
B32: the “ratio of amounts bound (Z=Y/X)” value came out at 0.86.
B33: the “ratio of amounts bound (Z=Y/X)” value amounted to 1.16.
The result for B34 reads 1.23; that for B35, 1.03; that for B36, 1.32.
On to B37, for which the “ratio of amounts bound (Z=Y/X)” value was 0.71.
With B38, the “ratio of amounts bound (Z=Y/X)” value came out at 0.97.
As for B39, the “ratio of amounts bound (Z=Y/X)” value amounted to 1.
Turning to B40, the “ratio of amounts bound (Z=Y/X)” value came out at 0.31.
The result for B41 reads 0.69.
Consider B42, for which the “ratio of amounts bound (Z=Y/X)” value was determined as 1.1.
In the case of B43, the “ratio of amounts bound (Z=Y/X)” value amounted to 1.05.
